According to patent US20210261650A1 (published 2021):

Target: SARS-CoV-2 Spike (S) protein on pseudotyped virus or live SARS-CoV-2 (SARS-CoV-2 (BetaCoV/Wuhan-Hu-1/2019 for …, UniProt P0DTC2 14-1273))
Test: cell-based or functional assay

B1: SARS-CoV-2 S310 mAb (antibody, V domains shown)
VH: QVQLVQSGAELKKPGSSVKVSCKASGGTFNSYSFNWVRQAPGQGLEWLGGIIPVLGTSNYAQKFQGRVAVTADEFTTTAYMELSSLRSEDTAVYYCATRTYDSSGYRPYYYGLDVWGQGTPVTVSS
VL: QSALTQPASVSGSPGQSITISCTGTSSDVGSYNLVSWYQQRPGKAPELMIYEVTKRPSGLSNRFSGSKSGNTASLTISGLQAEDEADYYCCSYAGSDTVIFGGGTKVTVL
- Percent neutralization of infection, dilution 2: -4%
- Percent neutralization of infection, dilution 6: -15%
- Percent neutralization of infection, dilution 18: -15%
- Percent neutralization of infection, dilution 54: -6%
